Article PMC11045720

How the values were obtained:
[1] = target: Alcohol dehydrogenase from baker's yeast (baker's yeast) (UniProt P00330); assay: mass photometry (native, nMP); samples diluted in their native buffer to 100-400 nM, then drop-diluted to 10-40 nM in a PBS droplet; room temperature (18 °C); triplicates
[2] = target: Alcohol dehydrogenase from baker's yeast (baker's yeast) (UniProt P00330); assay: cross-linking; DSBU at 25:1 to 1000:1 molar excess on 1 mg/mL protein, 45 min at room temperature (20 °C), quenched with Tris HCl; read by denaturing mass photometry (5 min in 5.4 M urea) and SDS-PAGE
[3] = target: Human 20 S proteasome (human); assay: cross-linking; formaldehyde 0.05% to 1% (vol/vol) on 1 mg/mL protein, 20 min at room temperature; read by denaturing mass photometry
[4] = target: Human 20 S proteasome (human); assay: mass photometry (native, nMP); samples diluted in their native buffer to 100-400 nM, then drop-diluted to 10-40 nM in a PBS droplet; room temperature (18 °C); triplicates

percent of detected species that are monomers (nMP) [1] [%] | stoichiometry N [1] | stoichiometry N [2] | stoichiometry N [3] | percent of detected species that are monomers (nMP) [4] [%] | stoichiometry N [4] | Substance
46 | 4 | 4 |  |  |  | Alcohol dehydrogenase from baker's yeast (from UniProt P00330 1-348) (enzyme)
 |  |  | 28 | 51 | 28 | Human 20 S proteasome (complex)
